In article PMC8583712, “p53 Transactivation Domain Mediates Binding and Phase Separation with Poly-PR/GR” (International Journal of Molecular Sciences, 2021):
Where no end group is shown, it is not given here. The star is where a group is joined. FITC = O=C1OC2(c3ccc(O)cc3Oc3cc(O)ccc32)c2ccc(NC(=S)*)cc21

B1: N-terminally fluorescein isothiocyanate (FITC)-labelled GR25 (peptide)
peptide: {FITC}-GRGRGRGRGRGRGRGRGRGRGRGRGRGRGRGRGRGRGRGRGRGRGRGRGR
notes: C9orf72 repeat-derived dipeptide repeat; also called FITC-labeled GR25; FITC-GR25; source: synthetic peptide (Peptide Specialty Laboratories GmbH, HPLC-purified)
B2: p53^TAD2 (human p53 transactivation domain 2, amino acids 37 to 57) (domain or fragment, UniProt P04637 37-57, looked up)
chain: SQAMDDLMLSPDDIEQWFTED
notes: human p53, amino acids 37 to 57 (TAD2 construct); 15N-labelled for NMR, unlabelled for fluorescence polarisation; source: E. coli BL21-DE3 Star, purified (lysis in 6 M urea, Ni-NTA, TEV cleavage, second Ni-NTA, SEC on Superdex Peptide)
B3: N-terminally fluorescein isothiocyanate (FITC)-labelled PR25 (peptide)
peptide: {FITC}-PRPRPRPRPRPRPRPRPRPRPRPRPRPRPRPRPRPRPRPRPRPRPRPRPR
notes: C9orf72 repeat-derived dipeptide repeat; also called FITC-labeled PR25; FITC-PR25; source: synthetic peptide (Peptide Specialty Laboratories GmbH, HPLC-purified)

Columns and labels:
p53^TAD2 = biological target: T1, p53^TAD2 (Homo sapiens, UniProt P04637); assay: Fluorescence polarization, FITC-labeled PR25/GR25 with p53^TAD2; type: binding; details: 100 nM FITC-labelled (N-terminal) peptide, 20 mM Hepes pH 7.0, 50 mM NaCl, 2 mM TCEP, 0.04% NaN3, room temperature, 35 µL, λex 495/λem 530 nm; 1:1 complex; mean of three experiments, errors = SD of the fit; read-out: equilibrium dissociation constant (Kd), p53^TAD2
T1 construct: amino acids 37 to 57 (p53 ^TAD2); ZZ-His6 (cleaved yes); made in house; host or cells: E. coli BL21-DE3 Star
Text: Measurements were taken at room temperature in black 384-well plates using a ClarioStar Plus (BMG labtech, Ortenberg, Germany) spectrophotometer. Filters were selected as a function of FITC optical characteristics (λex= 495 nm, and λem= 530 nm). […] The polarization data were fitted using graphpad prism 8 with the following equation:(3) P=P0+Pmax×L/L + Kd
Here, P0 represents the polarization of FITC-labelled peptides in absence of p53^1−94 and p53^TAD2, and Pmax to the highest polarization of the binding curve corresponding to the saturation of the interaction. L corresponds to the concentration of p53^1–94 and p53^TAD2 proteins, and Kd is the dissociation constant.

[1] = biological target: T2, p53^1-94 (human p53 residues 1 to 94: transactivation domains 1 and 2 and poly-proline region) (human, UniProt P04637 1-94); assay: fluorescence polarisation; 100 nM FITC-labelled PR25/GR25 with increasing concentrations of p53 1-94 or p53 TAD2; room temperature; 20 mM Hepes pH 7.0, 50 mM NaCl, 2 mM TCEP, 0.04% NaN3; fit assuming a 1:1 complex; details: both partners purified
T2 construct: human p53, amino acids 1 to 94; 15N- or 13C,15N-labelled for NMR, unlabelled for fluorescence polarisation; also called N-terminal disordered region; source: E. coli BL21-DE3 Star, purified (lysis in 6 M urea, Ni-NTA, TEV cleavage, second Ni-NTA, SEC on Superdex 75 Increase)

[2] = biological target: B3; assay: as above; details: both partners purified
[3] = biological target: B1; assay: as above; details: both partners purified

T2 sequence (P04637 1-94): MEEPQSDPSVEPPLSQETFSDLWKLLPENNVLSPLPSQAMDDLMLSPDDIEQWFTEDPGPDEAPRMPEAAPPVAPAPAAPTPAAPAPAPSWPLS

Kd (p53^TAD2) [nM]	Kd [1] [nM]	Molecule	further results
2850 ± 510		N=C(N)NCCC[C@H](NC(=O)CNC(=O)[C@H](CCCNC(=N)N)NC(=O)CNC(=O)[C@H](CCCNC(=N)N)NC(=O)CNC(=O)[C@H](CCCNC(=N)N)NC(=O)CNC(=O)[C@H](CCCNC(=N)N)NC(=O)CNC(=O)[C@H](CCCNC(=N)N)NC(=O)CNC(=O)[C@H](CCCNC(=N)N)NC(=O)CNC(=O)[C@H](CCCNC(=N)N)NC(=O)CNC(=O)[C@H](CCCNC(=N)N)NC(=O)CNC(=O)[C@H](CCCNC(=N)N)NC(=O)CNC(=O)[C@H](CCCNC(=N)N)NC(=O)CNC(=O)[C@H](CCCNC(=N)N)NC(=O)CNC(=O)[C@H](CCCNC(=N)N)NC(=O)CNC(=O)[C@H](CCCNC(=N)N)NC(=O)CNC(=O)[C@H](CCCNC(=N)N)NC(=O)CNC(=O)[C@H](CCCNC(=N)N)NC(=O)CNC(=O)[C@H](CCCNC(=N)N)NC(=O)CNC(=O)[C@H](CCCNC(=N)N)NC(=O)CNC(=O)[C@H](CCCNC(=N)N)NC(=O)CNC(=O)[C@H](CCCNC(=N)N)NC(=O)CNC(=O)[C@H](CCCNC(=N)N)NC(=O)CNC(=O)[C@H](CCCNC(=N)N)NC(=O)CNC(=O)[C@H](CCCNC(=N)N)NC(=O)CNC(=O)[C@H](CCCNC(=N)N)NC(=O)CNC(=O)[C@H](CCCNC(=N)N)NC(=O)CN)C(=O)O [GR25]	
3640 ± 1160		N=C(N)NCCC[C@H](NC(=O)[C@@H]1CCCN1C(=O)[C@H](CCCNC(=N)N)NC(=O)[C@@H]1CCCN1C(=O)[C@H](CCCNC(=N)N)NC(=O)[C@@H]1CCCN1C(=O)[C@H](CCCNC(=N)N)NC(=O)[C@@H]1CCCN1C(=O)[C@H](CCCNC(=N)N)NC(=O)[C@@H]1CCCN1C(=O)[C@H](CCCNC(=N)N)NC(=O)[C@@H]1CCCN1C(=O)[C@H](CCCNC(=N)N)NC(=O)[C@@H]1CCCN1C(=O)[C@H](CCCNC(=N)N)NC(=O)[C@@H]1CCCN1C(=O)[C@H](CCCNC(=N)N)NC(=O)[C@@H]1CCCN1C(=O)[C@H](CCCNC(=N)N)NC(=O)[C@@H]1CCCN1C(=O)[C@H](CCCNC(=N)N)NC(=O)[C@@H]1CCCN1C(=O)[C@H](CCCNC(=N)N)NC(=O)[C@@H]1CCCN1C(=O)[C@H](CCCNC(=N)N)NC(=O)[C@@H]1CCCN1C(=O)[C@H](CCCNC(=N)N)NC(=O)[C@@H]1CCCN1C(=O)[C@H](CCCNC(=N)N)NC(=O)[C@@H]1CCCN1C(=O)[C@H](CCCNC(=N)N)NC(=O)[C@@H]1CCCN1C(=O)[C@H](CCCNC(=N)N)NC(=O)[C@@H]1CCCN1C(=O)[C@H](CCCNC(=N)N)NC(=O)[C@@H]1CCCN1C(=O)[C@H](CCCNC(=N)N)NC(=O)[C@@H]1CCCN1C(=O)[C@H](CCCNC(=N)N)NC(=O)[C@@H]1CCCN1C(=O)[C@H](CCCNC(=N)N)NC(=O)[C@@H]1CCCN1C(=O)[C@H](CCCNC(=N)N)NC(=O)[C@@H]1CCCN1C(=O)[C@H](CCCNC(=N)N)NC(=O)[C@@H]1CCCN1C(=O)[C@H](CCCNC(=N)N)NC(=O)[C@@H]1CCCN1C(=O)[C@H](CCCNC(=N)N)NC(=O)[C@@H]1CCCN1)C(=O)O [PR25]	
	430	B1	
		B2	Kd [2]: 3640 nM; Kd [3]: 2850 nM
	1840	B3	
